According to paper PMC12830966:

Target: NFIA full-length (human, UniProt Q12857 1-509)
Test: BLI

Chain of NFIA full-length (Q12857 whole entry): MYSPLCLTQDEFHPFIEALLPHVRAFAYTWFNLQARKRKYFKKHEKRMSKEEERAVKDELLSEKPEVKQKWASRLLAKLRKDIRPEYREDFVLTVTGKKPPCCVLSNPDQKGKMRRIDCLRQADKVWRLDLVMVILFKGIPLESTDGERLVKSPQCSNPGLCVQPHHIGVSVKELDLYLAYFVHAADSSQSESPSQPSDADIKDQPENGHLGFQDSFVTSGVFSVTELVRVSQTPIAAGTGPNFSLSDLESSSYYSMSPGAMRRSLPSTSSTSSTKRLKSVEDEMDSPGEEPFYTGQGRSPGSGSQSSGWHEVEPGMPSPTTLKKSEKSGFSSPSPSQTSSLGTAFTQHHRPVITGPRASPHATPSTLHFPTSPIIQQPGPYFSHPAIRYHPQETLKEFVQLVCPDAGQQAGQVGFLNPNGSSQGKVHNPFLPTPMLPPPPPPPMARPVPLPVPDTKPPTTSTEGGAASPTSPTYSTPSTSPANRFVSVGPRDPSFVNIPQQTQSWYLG

B1: DNA-S (dsDNA)
DNA 1: AGTTGGCAAGTC
DNA 2: GACTTGCCAACT
B1 gave a Kd of 20.4 nM.
